Data reported in the supplement of paper PMC11780869.

Tested on: Bacillus subtilis
Test: cleaved RNA product abundance (RNA/gDNA barcode ratio) relative to median wild-type variant (ratio to wild type); higher = more accumulation of the downstream cleavage product
Procedure: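 MPRA in B. subtilis. Mutagenized RNase Y cleavage-site regions (9% mutation rate) were inserted into a barcoded reporter mRNA (truncated aprE or tetM). Cells were grown in LB at 37°C to OD600 0.3. The cleaved RNA isoform was gel-purified and its barcodes counted; the RNA:gDNA barcode ratio was normalised to the median wild-type variant, and the median over barcodes is reported per variant. The printed sequence is the variable window only; the reporter flanks are not printed.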

[1] = experiment (reporter, strain, medium): exp 8a: truncated aprE reporter, strain BJT201 with 2% xylose (RNase J1 expressed), cleavage site: glnRA (positions -5 to +31 mutated)
[2] = experiment (reporter, strain, medium): exp 4a: truncated aprE reporter, strain BJT201 with 2% xylose (RNase J1 expressed), cleavage site: cggR-gapA (positions -7 to +36 mutated)
[3] = experiment (reporter, strain, medium): exp 2b: truncated aprE reporter, strain BJT200, cleavage site: cggR-gapA (positions -7 to +36 mutated)

Sequence | cleaved RNA product abundance [1] | cleaved RNA product abundance [2] | cleaved RNA product abundance [3]
CGACATGTCCCGCTTCTTTCATTATTCCATTAGCAACTGTTTTGCTATATACATTTACCTTTTAAGAGGAGGAAT | 1.21 | – | –
ACAGACGAAGGAGCCGCAAAGAAGTTATTACGGGATGAATAATCCCTCAATATAGATATCTCTCACTTATTTAAA | – | 0.351 | –
CGACATGTCCCGCTTCTTTCATTAATACGTTAGCAACTGTTTTGATATATACATTTACCTTTTAAGAGGAGGAAT | 0.527 | – | –
CGACATGTCCCGCTTCTTTCATTAATCCGATAGCAACTGTTTTGTTATATACATTTACCTTTTAAGAGGAGGAAT | 0.378 | – | –
ACAGACGAAGGAGCCGCAAAGAAATTATTAAGTGATGAATAATCCCTCAATATAAATATCTCTCACTTATTTAAA | – | 0.125 | 0.107
CGACATGTCCCGCTTCTTTCATTAATCCGTTAGCAACTGTTTTGCCATATACATTTACGTTTTAAGAGGAGGAAT | 0.6 | – | –
ACAGACGAAGGAGCCGCAAAGAAGCTATAAAGGGATGAATAATCCCTCAATATAAATATCTCTCACTTATTTAAA | – | 0.357 | 0.272
ACAGACGAAGGAGCCGCAAAGAAGTTATTAACGGATGAATATTCCCTCAATATAAATATCTCTCACTTATTTAAA | – | 0.138 | –
ACAGACGAAGGAGCCGCAAAGAAGTTATTAAGGGATGAATAACCCCTCAAAATAAATATCTCTCACTTATTTAAA | – | – | 0.208
ACAGACGAAGGAGCCGCAAAGAAGTTATTAAGGGCTGAATAATCCCTCAATATACATATCTCTCACTTATTTAAA | – | 0.433 | –
CGACATGTCCCGCTTCTTTCATTAATCCGTTTGCAACTGTTTTGCTATATACATTTACTTTTTAAGAGGAGGAAT | 0.552 | – | –
ACAGACGAAGGAGCCGCAAAAAAGTTATTAATGGATGAATAATCCCTCAATATAAATATCTCTCACTTATTTAAA | – | 0.149 | 0.0715
CGACATGTCCCGCTTCTTTCATTAATCCGTTAGCAAGTGTTTTGCTATATCCATTTACCTTTTAAGAGGAGGAAT | 0.273 | – | –
ACAGACGAAGGAGCCGCAAAGAAGTTATTAAGGGATTTATAATCCCTCAATATAAATATCTCTCACTTATTTAAA | – | 0.931 | –
CGACATGTCCCGCTTCTTTCATTAATCCGTTAGCAACTGAGTTGCTATATACATTTACCTTTTAAGAGGAGGAAT | 0.261 | – | –
ACAGACGAAGGAGCCGCAAAGCAGTTATTAAGGGATGAATAATCCCTCAATATATATATCTCTCACTTATTTAAA | – | 0.687 | –
CGACATGTCCCGCTTCTTTCATTAATCCGTTAGCAACTGTTATGTTATATACATTTACCTTTTAAGAGGAGGAAT | 0.172 | – | –
CGACATGTCCCGCTTCTTTCATTAATCCGTTAGCAACAGGTTTGCTATATACATTTACCTTTTAAGAGGAGGAAT | 0.389 | – | –
ACAGACGAAGGAGCCGCAAAGAAGTTATTAAGGGATGAATAATCCCTCAATATAAATATGACTCACTTATTTAAA | – | 1 | –
ACAGACGAAGGAGCCGCAAAGAAGTTATTAGGGGATGAATAATCCCTGAATATAAATATCTCTCACTTATTTAAA | – | 0.371 | –

Sequence | cleaved RNA product abundance [1] | cleaved RNA product abundance [2] | cleaved RNA product abundance [3]
ACAGACGAAGGAGCCGCAAAGAAGTTATTAAGGGATGAATATTCCCTCAATAAAAATATCTCTCACTTATTTAAA | – | 0.156 | –
CGACATGTCCCGCTTCTTTCATTAATCCGTAAGCAACTGTTTTGTTATATACATTTACCTTTTAAGAGGAGGAAT | 0.391 | – | –
CGACATGTCCCGCTTCTTTCATTAATACGTTAGCAACTGTTTTGCTATATACATTTACTTTTTAAGAGGAGGAAT | 0.472 | – | –
ACAGACGAAGGAGCCGCAAAGAAGTTATTAAGGGATGAATATGCCCTCAATATAAATATCTCTCACTTATTTAAA | – | 0.363 | –
CGACATGTCCCGCTTCTTTCATTAATACGTTCGCAACTGTTTTGCTATATACATTTACCTTTTAAGAGGAGGAAT | 0.216 | – | –
CGACATGTCCCGCTTCTTTCATTATTCAGTTAGCAACTGTTTTGCTATATACATTTACCTTTTAAGAGGAGGAAT | 1.38 | – | –
ACAGACGAAGGAGCCGCAAAGAAGTTATTAAGGGATGAATAATCCCTCACTATATATATCTCTCACTTATTTAAA | – | 0.319 | –
ACAGACGAAGGAGCCGCAAAGAAGTTATTAAGGCAAGAATAATCCCTCAATATAAATATCTCTCACTTATTTAAA | – | 0.115 | 0.104
ACAGACGAAGGAGCCGCAAAGAAGATATTAAGGGATGAATAATACCTCAATATAAATATCTCTCACTTATTTAAA | – | 0.237 | 0.162
CGACATGTCCCGCTTCTTTCATTAATCCGTTAGCAACTGTTTTGCTCTATAAATTTACCTTTTAAGAGGAGGAAT | 0.384 | – | –
ACAGACGAAGGAGCCGCAAAGAAGTTATTAAGGGATAAGTAATCCCTCAATATAAATATCTCTCACTTATTTAAA | – | 0.785 | 0.555
CGACATGTCCCGCTTCTTTCATTAATCCGTTAGAAACTGTTTTTCTATATACATTTACCTTTTAAGAGGAGGAAT | 0.511 | – | –
CGACATGTCCCGCTTCTTTCATTAACCCGTTAGCAACTGTTTTGCTATATACATTTACCTTTTAAGAGGAGGAAT | 0.819 | – | –
ACAGACGAAGGAGCCGCAAAGAAGTTATTTAGGGATGAATAATTCCTCAATATAAATATCTCTCACTTATTTAAA | – | 0.405 | –
CGACATGTCCCGCTTCTTTCATTAATCCGTTAGCAAATATTTTGCTATATACATTTACCTTTTAAGAGGAGGAAT | 0.843 | – | –
ACAGACGAAGGAGCCGCAAAGAAGTTATTAAGGGATGAATAATTGCTCAATATAAATATCTCTCACTTATTTAAA | – | 0.0655 | 0.0946
ACAGACGAAGGAGCCGCAAAGAAGTTATTAAGGGATGAATACTGCCTCAATATAAATATCTCTCACTTATTTAAA | – | – | 0.112
ACAGACGAAGGAGCCGCAAAGAAGTTATTAAAGGAGGAATAATCCCTCAATATAAATATCTCTCACTTATTTAAA | – | 0.25 | –
ACAGACGAAGGAGCCGCAAAGAAGTTAATAAGGGATGAATAATACCTCAATATAAATATCTCTCACTTATTTAAA | – | 0.144 | 0.0994
ACAGACGAAGGAGCCGCAATGAAGTTATTAAGGGATTAATAATCCCTCAATATAAATATCTCTCACTTATTTAAA | – | 1.06 | 0.989

Sequence | cleaved RNA product abundance [1] | cleaved RNA product abundance [2] | cleaved RNA product abundance [3]
ACAGACGAAGGAGCCGCTAAGAAGTTATTAAGGGATGAATTATCCCTCAATATAAATATCTCTCACTTATTTAAA | – | 0.874 | –
CGACATGTCCCGCTTCTTTCATTATCCCGTTAGCAACTGTTTTGCTATATACTTTTACCTTTTAAGAGGAGGAAT | 0.41 | – | –
ACAGACGAAGGAGCCGCAAATAAGTTATTAAGGGATGAATAATCCCTCAATATATATATCTCTCACTTATTTAAA | – | 0.9 | –
ACAGACGAAGGAGCCGCAAAGAAATTATTAAAGGATTAATAATCCCTCAATATAAATATCTCTCACTTATTTAAA | – | 0.142 | –
ACAGACGAAGGAGCCGCAAAGACGTTATTAAGGGATGAATCATCCCTCAATATAAATATCTCTCACTTATTTAAA | – | 0.771 | 0.89
CGACATGTCCCGCTTCTTTCATTAATCCGTTAGCAACTGTTTTGCTATTTAAATTTACCTTTTAAGAGGAGGAAT | 0.144 | – | –
ACAGACGAAGGAGCCGCAAAGACGTTATTAAGGGATTAATAATCCCTCAATATAAATATCTCTCACTTATTTAAA | – | 0.857 | 0.747
ACAGACGAAGGAGCCGCAAAGAAGTTATTAAGGGATGATTAATTCCTCAATATAAATATCTCTCACTTATTTAAA | – | – | 0.271
ACAGACGAAGGAGCCGCAAAGAAGTTATTAAGGGATGACCAATCCCTCAATATAAATATCTCTCACTTATTTAAA | – | 0.749 | –
ACAGACGAAGGAGCCGCATAGAAGTTATTAAGGGATGAATAATCCCTAAATATAAATATCTCTCACTTATTTAAA | – | 0.658 | –
ACAGACGAAGGAGCCGCAAAGAAGATATTAAGGGATGAATAATCACTCAATATAAATATCTCTCACTTATTTAAA | – | 0.143 | 0.145
ACAGACGAAGGAGCCGCAAAGAAGTTATTAAGGGATCAATAATCCATCAATATAAATATCTCTCACTTATTTAAA | – | 0.312 | –
ACAGACGAAGGAGCCGCAAAGAAGTTATTAAGGGATGAATAATCCTTCAATATAAGTATCTCTCACTTATTTAAA | – | 0.213 | –
ACAGACGAAGGAGCCGCAAAGAAGTTATTAAGGGATAAATAATACCTCAATATAAATATCTCTCACTTATTTAAA | – | 0.0789 | 0.117
CGACATGTCCCGCTTCTTTCATTATTCCGTTTGCAACTGTTTTGCTATATACATTTACCATTTAAGAGGAGGAAT | 0.356 | – | –
ACAGACGAAGGAGCCGCAAAGAAGTTATTAAAGGATGAATAATCCCTCACTATAAATATCTCTCACTTATTTAAA | – | 0.152 | 0.113
ACAGACGAAGGAGCCGCAAAGAAGTTTTTAAGGGATGAATAATCCCTCAATATAAACATCTCTCACTTATTTAAA | – | 0.208 | –
CGACATGTCCCGCTTCTTTCATTAATCCGTTAACAACTGTTTTGCTATATACATTTTCCTTTTAAGAGGAGGAAT | 0.0904 | – | –
ACAGACGAAGGAGCCGCAAAGAAGTTATTAAGGCATGAATAATCCCTCAATAGAAATATCTCTCACTTATTTAAA | – | 0.0906 | –
CGACATGTCCCGCTTCTTTCATTAATCCGTTAGCAACTGTTTTGATAAATACATTTACCTTTTAAGAGGAGGAAT | 0.384 | – | –
